In paper PMC11417369, “DNA sequence and chromatin differentiate sequence-specific transcription factor binding in the human malaria parasite Plasmodium falciparum”:

T1: HDP1 homeodomain-like (Plasmodium falciparum, UniProt Q8IKH4 2990-3078)
T1 sequence: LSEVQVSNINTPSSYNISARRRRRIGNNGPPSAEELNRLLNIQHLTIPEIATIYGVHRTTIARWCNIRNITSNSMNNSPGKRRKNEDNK

B1: GTGCAC_site10342 (dsDNA)
DNA 1: TTTTTAAACCATGTTGTGCACATTTTTTTTGGATTT
DNA 2: AAATCCAAAAAAAATGTGCACAACATGGTTTAAAAA
B2: GTGCAC_site9584 (dsDNA)
DNA 1: TGTAATAATATTTATGTGCACATATATTAAACTATA
DNA 2: TATAGTTTAATATATGTGCACATAAATATTATTACA
B3: GTGCAC_site9536 (dsDNA)
DNA 1: AATAATATACCTCTTGTGCACATATTAAAAGTTCAT
DNA 2: ATGAACTTTTAATATGTGCACAAGAGGTATATTATT
B4: GTGCAC_site9621 (dsDNA)
DNA 1: TATATATATAAGATTGTGCACATTAAAATGATAGAA
DNA 2: TTCTATCATTTTAATGTGCACAATCTTATATATATA
B5: GTGCAC_site9651 (dsDNA)
DNA 1: AATCGATAAAATGTTGTGCACATATTTTTATATTTA
DNA 2: TAAATATAAAAATATGTGCACAACATTTTATCGATT
B6: GTGCAC_site10138 (dsDNA)
DNA 1: TATTTATAAATATGTGTGCACAATTTATTTTATAAT
DNA 2: ATTATAAAATAAATTGTGCACACATATTTATAAATA
B7: GTGCAC_site10596 (dsDNA)
DNA 1: AAAATTTATAGTATGGTGCATAAAAATATATATATA
DNA 2: TATATATATATTTTTATGCACCATACTATAAATTTT
B8: GTGCAC_site10327 (dsDNA)
DNA 1: AAATTATGCATCGAGGTGCGTCTTAAAATATAGTGG
DNA 2: CCACTATATTTTAAGACGCACCTCGATGCATAATTT
B9: GTGCAC_site10060 (dsDNA)
DNA 1: TCTTTTTCTTCTTATGTGCACATCAATTATGCTTCT
DNA 2: AGAAGCATAATTGATGTGCACATAAGAAGAAAAAGA
B10: GTGCAC_site10419 (dsDNA)
DNA 1: TTTTCTTTTTTTTTTGTGCACATAATATATAATTAT
DNA 2: ATAATTATATATTATGTGCACAAAAAAAAAAGAAAA
B11: GTGCAC_site10665 (dsDNA)
DNA 1: TATGTATATTTTTTTGTGCACATATATATATATATA
DNA 2: TATATATATATATATGTGCACAAAAAAATATACATA
B12: GTGCAC_site9497 (dsDNA)
DNA 1: TAATTGAGCAAATGAGTGCACAGCATAAAGTATAGT
DNA 2: ACTATACTTTATGCTGTGCACTCATTTGCTCAATTA
B13: GTGCAC_site10617 (dsDNA)
DNA 1: GAGGTCTTTTTTAATGTGCACATATATATATATATA
DNA 2: TATATATATATATATGTGCACATTAAAAAAGACCTC
B14: GTGCAC_site10288 (dsDNA)
DNA 1: ATAGATCCTAATGTTGTGCACATGTAAATTAATATA
DNA 2: TATATTAATTTACATGTGCACAACATTAGGATCTAT
B15: GTGCAC_site9896 (dsDNA)
DNA 1: TCTTACGGATTCATTGTGCACATATATATATATATA
DNA 2: TATATATATATATATGTGCACAATGAATCCGTAAGA
B16: GTGCAC_site10194 (dsDNA)
DNA 1: AATTTTCCATAGATTGTGCACAAATTTTTATTTTGT
DNA 2: ACAAAATAAAAATTTGTGCACAATCTATGGAAAATT
B17: GTGCAC_site10210 (dsDNA)
DNA 1: ATTGAATATGGATATGTGCACATATGTATATAAGTA
DNA 2: TACTTATATACATATGTGCACATATCCATATTCAAT
B18: GTGCAC_site9742 (dsDNA)
DNA 1: GAAAAATTTTTATATGTGCACATGTTATATATAATT
DNA 2: AATTATATATAACATGTGCACATATAAAAATTTTTC
B19: GTGCAC_site10009 (dsDNA)
DNA 1: AAATATAGAATACATGTGCACATAATATATATATAT
DNA 2: ATATATATATATTATGTGCACATGTATTCTATATTT
B20: GTGCAC_site10602 (dsDNA)
DNA 1: GTTGTATACAATAATGTGCACATATTAATTTGAACT
DNA 2: AGTTCAAATTAATATGTGCACATTATTGTATACAAC
B21: GTGCAC_site10127 (dsDNA)
DNA 1: ACATATAAATATTGTGTGCACACACATAATATATAT
DNA 2: ATATATATTATGTGTGTGCACACAATATTTATATGT
B22: GTGCAC_site10307 (dsDNA)
DNA 1: AAATAATTAGAAATAGTGCACATAATTAAGGGATAC
DNA 2: GTATCCCTTAATTATGTGCACTATTTCTAATTATTT
B23: GTGCAC_site10605 (dsDNA)
DNA 1: GAAGTAGATGGAAAAGTGCACTGTAATGGTTATATT
DNA 2: AATATAACCATTACAGTGCACTTTTCCATCTACTTC
B24: GTGCAC_site9931 (dsDNA)
DNA 1: ATAAAAATAAAAAGTGTGCACACAAAAATATATATA
DNA 2: TATATATATTTTTGTGTGCACACTTTTTATTTTTAT
B25: GTGCAC_site9859 (dsDNA)
DNA 1: TACATAAATATATGTGTGCACAATTTCGTATATTTA
DNA 2: TAAATATACGAAATTGTGCACACATATATTTATGTA
B26: GTGCAC_site10550 (dsDNA)
DNA 1: TAAACGTTAGTATGTGTGCACATTAGTAATTTAAAA
DNA 2: TTTTAAATTACTAATGTGCACACATACTAACGTTTA
B27: GTGCAC_site10136 (dsDNA)
DNA 1: ATGATCTGTTTGTTTGTGCACATATATATATATTAA
DNA 2: TTAATATATATATATGTGCACAAACAAACAGATCAT
B28: GTGCAC_site9637 (dsDNA)
DNA 1: GGAAAATATGTTTGTGTGCACAGCTAGCTATTTGTA
DNA 2: TACAAATAGCTAGCTGTGCACACAAACATATTTTCC
B29: GTGCAC_site10777 (dsDNA)
DNA 1: ATAATATATACGTGTGTGCACATGACAAAAGCATAT
DNA 2: ATATGCTTTTGTCATGTGCACACACGTATATATTAT
B30: GTGCAC_site9822 (dsDNA)
DNA 1: ATCGTGTTAAATGTTGTGCACATATAAATTACAAAA
DNA 2: TTTTGTAATTTATATGTGCACAACATTTAACACGAT
B31: GTGCAC_site9801 (dsDNA)
DNA 1: ATCATCTTTATTCAAGTGCACTGAAAATTTTTTATA
DNA 2: TATAAAAAATTTTCAGTGCACTTGAATAAAGATGAT
B32: GTGCAC_site10133 (dsDNA)
DNA 1: AATTTATATAATTTTGTGCACAATATTCATGTATAT
DNA 2: ATATACATGAATATTGTGCACAAAATTATATAAATT
B33: GTGCAC_site9799 (dsDNA)
DNA 1: TATTATAATATATTTGTGCACATAATATCTCCGCTA
DNA 2: TAGCGGAGATATTATGTGCACAAATATATTATAATA
B34: GTGCAC_site9581 (dsDNA)
DNA 1: TTATTACACACATATGTGCACATATAAAAGTACACG
DNA 2: CGTGTACTTTTATATGTGCACATATGTGTGTAATAA
B35: GTGCAC_site10422 (dsDNA)
DNA 1: ATCAATAAATAAAATGTGCACATAATATATTAATAC
DNA 2: GTATTAATATATTATGTGCACATTTTATTTATTGAT
B36: GTGCAC_site10701 (dsDNA)
DNA 1: TAATACATAAATAATGTGCACATGGAAATATATCTT
DNA 2: AAGATATATTTCCATGTGCACATTATTTATGTATTA
B37: GTGCAC_site10725 (dsDNA)
DNA 1: TTTTGTTATTTTGAAGTGCACTTTCCACTTAATATA
DNA 2: TATATTAAGTGGAAAGTGCACTTCAAAATAACAAAA
B38: GTGCAC_site9761 (dsDNA)
DNA 1: ACATAATATACTATTGTGCACATATATATATATATA
DNA 2: TATATATATATATATGTGCACAATAGTATATTATGT
B39: GTGCAC_site10407 (dsDNA)
DNA 1: CCTTTTTATCTTTTTGTGCACAGACCTTTTTTAAAT
DNA 2: ATTTAAAAAAGGTCTGTGCACAAAAAGATAAAAAGG
B40: GTGCAC_site9405 (dsDNA)
DNA 1: TAAAAATAGGAGTGTGTGCACATAAATTATATACTA
DNA 2: TAGTATATAATTTATGTGCACACACTCCTATTTTTA
B41: GTGCAC_site10106 (dsDNA)
DNA 1: ATATTTTATATATTTGTGCACAATATTATAATATAT
DNA 2: ATATATTATAATATTGTGCACAAATATATAAAATAT
B42: GTGCAC_site9611 (dsDNA)
DNA 1: TATGAAACGATATATGTGCACATGAGGGAATATAGA
DNA 2: TCTATATTCCCTCATGTGCACATATATCGTTTCATA
B43: GTGCAC_site9990 (dsDNA)
DNA 1: TATATATATGTATATGTGCACAGTTTTCTTATTAAA
DNA 2: TTTAATAAGAAAACTGTGCACATATACATATATATA
B44: GTGCAC_site10672 (dsDNA)
DNA 1: AATTTCAAATTGTATGTGCACATGTAGAAGTACTTT
DNA 2: AAAGTACTTCTACATGTGCACATACAATTTGAAATT

Molecular target: T1, HDP1 homeodomain-like
Experiment: gcPBM; about 25 ug protein; PBS, 1% milk, 0.2 mg/ml BSA, salmon testes DNA, 0.03% Triton X-100
Conditions: tags: N-terminal GST (pGEX-4T-1), kept; chain copies: 2; label: surface-attached array probe

Binder | binding signal
B1 | 11.3 ln median PBM intensity, better of two orientations
B2 | 11.1 ln median PBM intensity, better of two orientations
B3 | 11.3 ln median PBM intensity, better of two orientations
B4 | 11.1 ln median PBM intensity, better of two orientations
B5 | 11.2 ln median PBM intensity, better of two orientations
B6 | 11 ln median PBM intensity, better of two orientations
B7 | 10.6 ln median PBM intensity, better of two orientations
B8 | 11.2 ln median PBM intensity, better of two orientations
B9 | 10.8 ln median PBM intensity, better of two orientations
B10 | 11.2 ln median PBM intensity, better of two orientations
B11 | 11.3 ln median PBM intensity, better of two orientations
B12 | 10.7 ln median PBM intensity, better of two orientations
B13 | 11 ln median PBM intensity, better of two orientations
B14 | 11 ln median PBM intensity, better of two orientations
B15 | 11.1 ln median PBM intensity, better of two orientations
B16 | 11.3 ln median PBM intensity, better of two orientations
B17 | 11.1 ln median PBM intensity, better of two orientations
B18 | 11.2 ln median PBM intensity, better of two orientations
B19 | 11.3 ln median PBM intensity, better of two orientations
B20 | 11.2 ln median PBM intensity, better of two orientations
B21 | 10.5 ln median PBM intensity, better of two orientations
B22 | 10.9 ln median PBM intensity, better of two orientations

Binder | binding signal
B23 | 10.6 ln median PBM intensity, better of two orientations
B24 | 11.3 ln median PBM intensity, better of two orientations
B25 | 11.1 ln median PBM intensity, better of two orientations
B26 | 10.6 ln median PBM intensity, better of two orientations
B27 | 11.3 ln median PBM intensity, better of two orientations
B28 | 11 ln median PBM intensity, better of two orientations
B29 | 11.1 ln median PBM intensity, better of two orientations
B30 | 11.3 ln median PBM intensity, better of two orientations
B31 | 11.2 ln median PBM intensity, better of two orientations
B32 | 11.2 ln median PBM intensity, better of two orientations
B33 | 11.1 ln median PBM intensity, better of two orientations
B34 | 11.1 ln median PBM intensity, better of two orientations
B35 | 11.1 ln median PBM intensity, better of two orientations
B36 | 11.2 ln median PBM intensity, better of two orientations
B37 | 10.7 ln median PBM intensity, better of two orientations
B38 | 11.2 ln median PBM intensity, better of two orientations
B39 | 11.2 ln median PBM intensity, better of two orientations
B40 | 11.2 ln median PBM intensity, better of two orientations
B41 | 10.8 ln median PBM intensity, better of two orientations
B42 | 11.3 ln median PBM intensity, better of two orientations
B43 | 11.1 ln median PBM intensity, better of two orientations
B44 | 11.1 ln median PBM intensity, better of two orientations
